{"source": "paper PMC7337384", "molecular_target": "RaTG13 S-protein receptor-binding domain fused to the Fc domain of human IgG1 (bat coronavirus RaTG13)", "experiment": "SPR"}
{"substance": "soluble monomeric human ACE2-NN (enzymatically inactive human ACE2 lacking its active-site histidines) (domain or fragment)", "values": [{"measurement": "Kd", "result": "> 35", "unit": "µM"}]}
